Experimental data published in the supplement of paper PMC10598134.
± gives the standard deviation.

Test: collision cross section of unmodified peptide (TIMS, N2, iRT-aligned); higher = larger / more extended gas-phase ion
Outline: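 Collision cross section was derived from the Mason-Schamp equation. Each value averages 1–3 technical replicates of the most abundant feature per charge state, measured on a timsTOF Pro/HT in dda-PASEF mode (nitrogen, ~2.4 mbar) after a 120-min nanoflow C18 gradient at 60 °C. Synthetic peptide pools (~100 fmol/µL in 2% acetonitrile/0.1% formic acid, iRT standard spiked 1:40) were identified with MaxQuant, and 1/K0 was calibrated with three reference ions and aligned run-wise to the median iRT peptide deviation.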

Sequence	collision cross section (charge state: 2)	collision cross section (charge state: 3)
ISEILLDHGAPIQAK	447.46 ± 0.13 Å²	537.87 ± 1.7 Å²
TEVLSPNSKVESK	418.58 ± 2.2 Å²	483.46 ± 5.8 Å²
GERGPPGPPGK	325.96 ± 0.79 Å²	437.43 ± 1.2 Å²
GAPGPQGPPGPPGK	357.97 ± 0.58 Å²	–
HSPTLPEPGGLRLELPLSR	–	583.19 Å²
GNDISSGTVLSDYVGSGPPKK	–	543.89 ± 0.71 Å²
SQAGASELGPFSDPR	396.36 ± 0.66 Å²	–
